What was measured:
[1] = molecular target: VEGF-DΔNΔC (human VEGF-D residues 93 to 201, FLAG-tagged at the N-terminus) (human) (UniProt O43915); test: SPR (BIAcore 3000), antibody immobilized, human VEGF-DΔNΔC flowed at 41-689 nM, 1:1 Langmuir model
[2] = molecular target: VEGF-DΔNΔC (human VEGF-D residues 93 to 201, FLAG-tagged at the N-terminus) (human) (UniProt O43915); test: cell-based or functional assay
[3] = molecular target: T1, chimeric protein consisting of the extracellular domain of human VEGFR-1 and the Fc portion of human IgG (human, UniProt P17948 27-758); test: plate receptor-binding assay, VEGFR-1/Ig coated, detection with biotinylated M2
T1 construct: extracellular domain; also called VEGFR-1/Ig; not shown: Fc portion of human IgG
T1 sequence (P17948 27-758, change not shown): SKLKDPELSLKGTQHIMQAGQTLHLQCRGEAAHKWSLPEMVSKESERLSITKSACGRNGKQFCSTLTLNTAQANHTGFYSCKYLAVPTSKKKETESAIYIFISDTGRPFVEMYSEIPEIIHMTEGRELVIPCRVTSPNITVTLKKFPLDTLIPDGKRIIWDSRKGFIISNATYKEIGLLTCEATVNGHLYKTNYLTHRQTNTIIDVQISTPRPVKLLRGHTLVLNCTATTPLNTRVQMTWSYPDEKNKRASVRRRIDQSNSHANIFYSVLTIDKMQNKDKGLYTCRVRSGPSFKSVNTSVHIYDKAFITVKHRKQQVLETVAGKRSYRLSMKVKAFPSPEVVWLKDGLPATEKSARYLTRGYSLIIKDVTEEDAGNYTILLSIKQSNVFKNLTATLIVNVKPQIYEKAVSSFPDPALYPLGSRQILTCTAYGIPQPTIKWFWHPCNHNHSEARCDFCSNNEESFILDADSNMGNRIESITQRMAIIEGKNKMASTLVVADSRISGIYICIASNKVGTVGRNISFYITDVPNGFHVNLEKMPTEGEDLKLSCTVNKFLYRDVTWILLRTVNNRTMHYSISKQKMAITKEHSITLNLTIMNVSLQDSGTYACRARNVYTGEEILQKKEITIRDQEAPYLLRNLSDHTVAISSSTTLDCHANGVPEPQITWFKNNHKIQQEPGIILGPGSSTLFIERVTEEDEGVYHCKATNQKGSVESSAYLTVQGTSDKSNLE

monoclonal antibody 4E10
Kd [1]: 57.1 nM | koff [1]: 0.00445 s⁻¹ | kon [1]: 78000 M⁻¹ s⁻¹ | response of Ba/F3-NYK-EpoR cells to VEGF-D?N?C (3H-thymidine incorporation) [2]: 80 µg/mL

B1: VEGF-DΔNΔC (human VEGF-D residues 93 to 201, FLAG-tagged at the N-terminus) (ligand)
chain: FYDIETLKVIDEEWQRTQCSPRETCVEVASELGKSTNTFFKPPCVNVFRCGGCCNEESLICMNTSTSYISKQLFEISVPLTSVPELVPVKVANHTGCKCLPTAPRHPYS
notes: also called VEGF-D?N?C; human VEGF-D?N?C; not shown: FLAG octapeptide (Sigma) at the N-terminus; any vector-de
binding result [3]: no binding (tested: 7.3 µg/ml VEGF-DΔNΔC)

Source: US6383484
